# B1: LINE1-full (parent)
# chain: UACGUAGGUGGUUUUCCCCUGAUAGUGCUAAGGGGGCCUGGAAGUUUGGACUGGGCAGAGCUCAACACAGCGUGGCAAAGUGGCUGUGGCUAGACUGCCUCUCUGGAUUCCUCGUCACUCAGCAGGGCAUCUCUGAGAGAAAUGCC
# Variants of: B1
# Assay: self-cleavage, relative activity (ratio to wild type); higher = more cleavage; in vitro, sequencing; the parent is a self-cleaving ribozyme
row,Variant,self-cleavage
1,A57U A117C,0.28
2,A57U A117G,0.09
3,A57U A117U,0.13
4,A57U A121G,0.15
5,A57U A121U,0.12
6,A57U A124U,0.09
7,A57U A129G,0.13
8,A57U A136C,0.1
9,A57U A138U,0.12
10,A57U A140G,0.11
11,A57U A140U,0.2
12,A57U A141G,0.11
13,A57U A142G,0.12
14,A57U A142U,0.08
15,A57U C61U,0.03
16,A57U C63A,0.04
17,A57U C66G,0.05
18,A57U C84A,0.21
19,A57U C90U,0.02
20,A57U C98G,0.06
21,A57U C99U,0.04

row,Variant,self-cleavage
1,A57U C110A,0.19
2,A57U C110U,0.05
3,A57U C120A,0.05
4,A57U G58U,0.04
5,A57U G83A,0.03
6,A57U G88A,0.04
7,A57U G106U,0.09
8,A57U G125A,0.04
9,A57U G126A,0.07
10,A57U G127A,0.1
11,A57U G144A,0.16
12,A57U U62A,0.03
13,A57U U62C,0.05
14,A57U U62G,0
15,A57U U73A,0.06
16,A57U U73C,0.1
17,A57U U85A,0.05
18,A57U U85C,0.06
19,A57U U100C,0.19
20,A57U U102A,0.08
21,A57U U104A,0.06

row,Variant,self-cleavage
1,A57U U108C,0.17
2,A57U U115C,0.18
3,A57U U119C,0.06
4,A57U U132A,0.13
5,A57U U134A,0.1
6,A57U U143C,0.14
7,G58A A64G,0.03
8,G58A A77G,0.06
9,G58A A94G,0
10,G58A A121G,0.13
11,G58A A140G,0.04
12,G58A A142G,0
13,G58A C71U,0.03
14,G58A G144A,0.04
15,G58A U62C,0.08
16,G58A U73C,0.04
17,G58A U81C,0.05
18,G58A U104A,0.03
19,G58A U109A,0.04
20,G58A U119C,0.06
21,G58A U134C,0.01

row,Variant,self-cleavage
1,G58C A124U,0.03
2,G58C G72U,0.02
3,G58U A64U,0.05
4,G58U A69G,0.07
5,G58U A78G,0.03
6,G58U A124C,0.03
7,G58U A124G,0.01
8,G58U A136G,0.01
9,G58U A140G,0.05
10,G58U A142G,0.03
11,G58U C71U,0.04
12,G58U U62A,0.02
13,G58U U62C,0
14,G58U U81C,0.05
15,G58U U87C,0.03
16,G58U U100C,0.09
17,G58U U100G,0.2
18,G58U U132C,0.01
19,G58U U143C,0.07
20,A59C,0.96
21,A59C A67G,0

# From the RNAGym collection of RNA variant scans (doi:10.7554/elife.90254)
